Measurements reported in publication PMC12822431, “A Pan‐TE Map Reveals the Important Role of Transposable Elements in Gene Expression and Phenotypic Diversity in 2,311 Rapeseed Accessions”.

Molecular target: T1, BnaA01G0374400ZS (MYB TF, ortholog of AT3G11280) (Brassica napus (ZS11), UniProt A0A078HEX6 1-259)
T1 sequence: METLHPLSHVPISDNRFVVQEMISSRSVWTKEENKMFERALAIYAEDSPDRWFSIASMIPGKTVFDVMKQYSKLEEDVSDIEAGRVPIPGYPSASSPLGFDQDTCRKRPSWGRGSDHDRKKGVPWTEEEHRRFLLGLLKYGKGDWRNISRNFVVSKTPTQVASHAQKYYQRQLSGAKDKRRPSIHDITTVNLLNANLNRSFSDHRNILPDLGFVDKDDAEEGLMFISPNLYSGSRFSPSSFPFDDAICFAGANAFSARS
Experiment: EMSA; Beyotime GS009 EMSA kit, room temperature, 20 min, 5% native polyacrylamide gel, chemiluminescent detection; buffer, salt and pH not stated
Conditions: protein: recombinant; tags: His; label: biotin; blunt

B1: M2 (M1 with all C nucleotides mutated) (dsDNA)
DNA 1: TTTTTTTATTTATATTAAATTTATT
DNA 2: AATAAATTTAATATAAATAAAAAAA
binding result: no binding
